According to patent publication US20150098945A1 (Daiichi Sankyo, published 2015):

Target: T1, human ROBO2 (pCI-hROBO2-transfected HEK293 cells) (human)
T1 chain: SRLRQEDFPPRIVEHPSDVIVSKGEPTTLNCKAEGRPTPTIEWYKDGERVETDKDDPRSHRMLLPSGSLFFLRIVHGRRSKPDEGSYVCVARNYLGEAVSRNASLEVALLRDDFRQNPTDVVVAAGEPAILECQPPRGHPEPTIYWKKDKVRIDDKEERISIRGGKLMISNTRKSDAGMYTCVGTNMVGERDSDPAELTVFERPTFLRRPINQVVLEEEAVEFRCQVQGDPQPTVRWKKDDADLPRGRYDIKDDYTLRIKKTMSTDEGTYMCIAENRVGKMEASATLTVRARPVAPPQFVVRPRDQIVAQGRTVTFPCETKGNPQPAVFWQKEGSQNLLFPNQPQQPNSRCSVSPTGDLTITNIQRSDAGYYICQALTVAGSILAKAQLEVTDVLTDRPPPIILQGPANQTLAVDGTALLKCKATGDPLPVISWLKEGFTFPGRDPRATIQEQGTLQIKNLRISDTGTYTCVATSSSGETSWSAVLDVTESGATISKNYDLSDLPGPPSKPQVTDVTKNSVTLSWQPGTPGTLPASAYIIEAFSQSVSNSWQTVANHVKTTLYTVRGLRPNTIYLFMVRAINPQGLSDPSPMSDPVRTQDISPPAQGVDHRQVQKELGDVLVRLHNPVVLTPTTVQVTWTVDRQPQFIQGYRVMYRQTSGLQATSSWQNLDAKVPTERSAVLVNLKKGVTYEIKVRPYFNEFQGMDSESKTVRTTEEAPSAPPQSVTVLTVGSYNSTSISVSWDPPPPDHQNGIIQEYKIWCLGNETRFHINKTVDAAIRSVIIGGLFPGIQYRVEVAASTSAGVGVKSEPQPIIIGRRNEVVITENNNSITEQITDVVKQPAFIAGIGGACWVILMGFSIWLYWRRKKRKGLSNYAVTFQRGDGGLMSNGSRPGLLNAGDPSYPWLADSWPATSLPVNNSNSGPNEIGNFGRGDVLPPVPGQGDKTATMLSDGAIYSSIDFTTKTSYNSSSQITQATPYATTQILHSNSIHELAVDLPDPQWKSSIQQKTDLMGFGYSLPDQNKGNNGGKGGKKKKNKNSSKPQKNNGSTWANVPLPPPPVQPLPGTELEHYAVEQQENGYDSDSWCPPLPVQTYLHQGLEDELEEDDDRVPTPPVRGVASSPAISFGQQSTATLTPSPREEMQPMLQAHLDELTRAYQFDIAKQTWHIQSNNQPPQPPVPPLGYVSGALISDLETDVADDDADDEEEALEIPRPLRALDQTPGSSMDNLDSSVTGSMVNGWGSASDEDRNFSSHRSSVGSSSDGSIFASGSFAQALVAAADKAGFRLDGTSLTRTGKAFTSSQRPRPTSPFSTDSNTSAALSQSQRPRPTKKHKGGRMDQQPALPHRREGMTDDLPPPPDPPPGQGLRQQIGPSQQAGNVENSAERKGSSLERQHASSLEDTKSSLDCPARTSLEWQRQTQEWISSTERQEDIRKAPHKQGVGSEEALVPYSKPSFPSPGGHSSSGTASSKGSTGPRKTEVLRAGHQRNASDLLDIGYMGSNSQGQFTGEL
Experiment: flow cytometry, HEK293 cells transfected with pCI-hROBO2, anti-mouse IgG FITC; control histogram IgG
Protocol: HEK293 cells were inoculated at a concentration of 1.2×10⁶ cells/dish or 1.5×10⁶ cells/dish to a 60-mm dish (manufactured by Corning Inc.) and cultured overnight in a DMEM medium containing 10% FBS at 37° C. under 5% CO₂ conditions. On the next day, the HEK293 cells were transfected with pCI-hROBO4, pCI-FLAG-hROBO1, pCI-hROBO2, or pCI-hROBO3 using FuGENE6 Transfection Reagent and further cultured overnight at 37° C. under 5% CO₂ conditions. On the next day, the expression vector-transfected cells were treated with TrypLE Express (manufactured by Life Technologies Corp.), washed with PBS containing 5% FBS, and then suspended in PBS containing 5% FBS. The obtained cell suspension was used in flow cytometry analysis.
Each cell suspension prepared in 4)-4-1 was centrifuged, and the supernatant was removed. […] Data was analyzed using Flowjo. The histogram of FITC fluorescence intensity was prepared. The antibody was determined to bind in a specific manner when the histogram of MAb1 was shifted to a stronger fluorescence intensity region compared with the histogram of the negative control Mouse IgG1 or Mouse IgG2a. […]

binding result: no binding (tested: 10 µg/mL)
B1: anti-ROBO4 mouse monoclonal antibody MAb1 (antibody, mouse IgG1, V domains shown)
VH: EVQLVESGGGLVKPGGSLKLSCAASGFTFSTYAMSWVRQTPEKRLEWVATISNGGTYTYYPDSVKGRFTISRDNAENTLYLQMSSLRSEDTAMYFCARLIYYDYLDYWGHGTTLTVSS
VL: DAVMTQTPLSLPVSLGDQASISCRSSQSLENSNGNTYLNWYFQKPGQSPQLLIYRVSNRFSGVLDRFSGSGSGTDFTLKISRVEAEDFGVYFCLQVTHVPWTFGGGTKLEIKR
notes: Mouse IgG1 (gamma1), kappa light chain, purified from hybridoma supernatant; also called parent antibody MAb1
